Measured values as given in patent publication US20050226863A1 (MIT, published 2005).
Where a chain is given by its changes, count along the chain named. Names may count otherwise.

Legend:
[1] = target: T1, peptide consisting of the first 20 amino acids of htt, MATLEKLMKAFESLKSFQQQ-biotin (C-terminal biotin); assay: titration of yeast surface displayed intrabody with biotinylated peptide, flow cytometry; Example 4 text's estimate from FIG. 24B
T1 construct: Synthesized to contain three glutamines; also called huntingtin peptide; huntingtin peptide antigen
T1 peptide: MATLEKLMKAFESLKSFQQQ
Excerpt: A peptide consisting of the first 20 amino acids of htt was used as the antigen ([…]-biotin (SEQ ID NO:9), synthesized by the MIT biopolymers lab). The antigen was synthesized to contain three glutamines because the beginning of the polyglutamine region would be an ideal target for interfering with the misfolding of htt exon I. Affinity maturation of VL,C22V,C89A relied upon protocols previously described (Colby, D. W. et al., Methods Enzymol 388: 348-358, 2004). Briefly, the VL,C22V,C89A gene was used as the template for the creation of a library of point mutants through error-prone PCR using nucleotide analogues. The resulting PCR products were amplified and transformed into yeast along with digested pCTCON (a yeast surface display vector) to create a library through homologous recombination (Raymond, C. K. et al., Biotechniques 26: 134-138, 140-141, 1999). […] These mutants were then used as the template in the next round of library generation. The entire process, from library generation to isolation of improved mutants, was repeated three times to yield VL12.3. FACS sorting was performed using a Cytomation Moflo FACS machine by the staff of the MIT Flow cytometry core facility. All constructs and clones were sequenced at the MIT biopolymers lab.
Intrabody lacking disulflde bond engineered for high affinity by directed evolution. […]

[2] = target: T1, peptide consisting of the first 20 …; assay: antigen binding curves of yeast surface displayed VL mutants, flow cytometry; figure legend's estimate from FIG. 24B
Method: (§1) Both intrabodies are equally capable of partially blocking aggregation when overexpressed at high levels. *** p<0.001. FIG. 24D is a schematic homology model that includes mutations obtained during engineering; model contains residues present before mutagenesis. Mutations observed after mutagenesis and sorting were F371, Y51D, K67R, and A75T.
(§2) Yeast surface display. […] Yeast surface display labeling experiments to measure expression and binding were conducted as previously described (Boder, E. T. et al., Methods Enzymol 328: 430-444, 2000). A peptide consisting of the first 20 amino acids of htt was used as the antigen ([…]-biotin (SEQ ID NO:9), synthesized by the MIT biopolymers lab). The antigen was synthesized to contain three glutamines because the beginning of the polyglutamine region would be an ideal target for interfering with the misfolding of htt exon I. Affinity maturation of VL,C22V,C89A relied upon protocols previously described (Colby, D. W. et al., Methods Enzymol 388: 348-358, 2004). Briefly, the VL,C22V,C89A gene was used as the template for the creation of a library of point mutants through error-prone PCR using nucleotide analogues. […]

httex1Q97-GFP, P42858 = assay: cell-based or functional assay
[3] = target: T1, peptide consisting of the first 20 …; assay: titration of yeast surface displayed intrabody with biotinylated peptide, flow cytometry
Method: as §1, §2

[4] = target: T1, peptide consisting of the first 20 …; assay: yeast surface display, flow cytometry with huntingtin peptide (method not restated in the sentence)
Method: as §1, §2

[5] = target: T1, peptide consisting of the first 20 …; assay: yeast surface display titration
Method: as §1, §2

[6] = target: T1, peptide consisting of the first 20 …; assay: yeast surface display, flow cytometry with huntingtin peptide
Method: as §1, §2

[7] = target: T1, peptide consisting of the first 20 …; assay: yeast surface display, flow cytometry
Method: as §1, §2

B1: VL12.3 (other)
VL: MGSQPVLTQSPSVSAAPRQRVTISVSGSNSNIGSNTVNWIQQLPGRAPELLMYDDDLLAPGVSDRFSGSRSGTSASLTISGLQSEDEADYYAATWDDSLNGWVFGGGTKVTVLSGHHHHHH
notes: It carries N-terminal MGS and C-terminal GHHHHHH, which is the his6 intrabody form; also called engineered intrabody VL12.3; Ad-VL12.3 (adenovirus carrying the gene)
[1]
  Kd: ~0.005 µM
[2]
  Kd: ~0.003 µM
httex1Q97-GFP, P42858
  formation of aggregates in ST14A cells, 1:1 intrabody:htt plasmid ratio: 80 % reduction
  formation of aggregates in ST14A cells, higher intrabody:htt plasmid ratios: > 90 % reduction

B2: VL (anti-huntingtin single-domain antibody, variable light chain only), yeast-surface displayed (other)
VL: QPVLTQSPSVSAAPRQRVTISCSGSNSNIGSNTVNWFQQLPGRAPELLMYYDDLLAPGVSDRFSGSKSGTSASLAISGLQSEDEADYYCATWDDSLNGWVFGGGTKVTVLS
notes: Single human VL domain with its disulfide bond; also called SDAb; SDIb
[3]
  Kd: ~0.03 µM
[4]
  Kd: 0.03 to 0.05 µM

B3: VL,C22V,C89A (disulfide-free VL), yeast-surface displayed (other)
VL: B2 VL with C22V, C89A
notes: also called disulfide-free antibody; disulfide knock-out
[3]
  Kd: > 10 µM
[5]
  fold difference in affinity against VL: ~1000 fold
[6]
  fold decrease in affinity against the SDAb with its disulfide bond: ~100 fold

B4: engineered (affinity matured) disulfide-free SDIb of Examples 1 and 3 (other)
VL: SRPVLTQSPSVSAAPRQRVTISVSGSNSNIGSNTVNWIQQLPGRAPELLMYDDDLLAPGVSDRFSGSRSGTSASLTISGLQSEDEADYYAATWDDSLNDWVFGGGTKVTVLS
notes: expressed in yeast cytoplasm for the aggregation assay (construct not described); also called engineered SDIb
[7]
  Kd: ~0.01 µM
